Assay [1] concerns the target human TLR2 (hTLR2) (human) (UniProt O60603). Kind of assay: T7 phage display biopanning, 4 rounds, on 293.hTLR2 cells after negative panning on parental HEK293; percent of 109 sequenced clones.
The target of assay [2] is T1, TLR2 (Homo sapiens, UniProt O60603). To be noted: cited from earlier work.
Target sequence in this assay (O60603 21-784, species assumed): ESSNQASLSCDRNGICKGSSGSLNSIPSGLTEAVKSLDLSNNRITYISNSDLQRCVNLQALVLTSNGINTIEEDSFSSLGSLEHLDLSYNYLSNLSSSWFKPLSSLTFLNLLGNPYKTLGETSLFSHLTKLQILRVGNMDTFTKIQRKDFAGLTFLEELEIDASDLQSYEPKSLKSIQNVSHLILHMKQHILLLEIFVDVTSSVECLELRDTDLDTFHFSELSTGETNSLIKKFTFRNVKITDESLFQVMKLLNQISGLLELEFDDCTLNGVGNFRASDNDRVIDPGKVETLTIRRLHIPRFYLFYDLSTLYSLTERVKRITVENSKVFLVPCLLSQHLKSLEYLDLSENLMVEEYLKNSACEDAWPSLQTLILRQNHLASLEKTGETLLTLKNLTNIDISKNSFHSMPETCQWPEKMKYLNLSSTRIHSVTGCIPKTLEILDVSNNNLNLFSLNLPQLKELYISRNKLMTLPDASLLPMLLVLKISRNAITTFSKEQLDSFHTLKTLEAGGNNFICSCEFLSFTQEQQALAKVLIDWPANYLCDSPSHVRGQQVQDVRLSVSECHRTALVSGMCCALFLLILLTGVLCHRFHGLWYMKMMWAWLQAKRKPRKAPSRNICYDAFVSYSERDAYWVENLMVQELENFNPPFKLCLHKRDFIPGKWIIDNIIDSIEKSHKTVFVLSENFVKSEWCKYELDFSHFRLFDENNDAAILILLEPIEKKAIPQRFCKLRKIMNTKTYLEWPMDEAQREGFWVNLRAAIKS
Assay [3] addresses T1, TLR2. Kind of assay: NF-κB-dependent luciferase reporter assay, parental 293 vs 293.hTLR2 cells. The class given is cell-based. To be noted: 293.hTLR2 vs parental 293 cells, four to five hours at 37° C. Details: host or cells: HEK293 (293.luc, stably carrying κB-LUC reporter). Here is the method: NF-κB-dependent luciferase reporter assay: Parental 293 cells and 293.hTLR2 cells (see Example 1, above) were incubated with an aliquot of test peptide four to five hours at 37° C. NF-κB-dependent luciferase activity was measured using the Steady-Glo Luciferase Assay System by Promega (E2510), following the manufacturer's instructions. Luminescence was measured on a microplate luminometer (FARCyte, Amersham) and expressed as relative luminescence units (RLU) after subtracting the background reading obtained by exposing cells to the DMEM medium alone.
The biological activity of the TLR2-binding peptides isolated by the screening method was confirmed using the isolated peptides in an NF-κB-dependent reporter gene assay. For this assay, a synthetic monomer of the DPDSG motif (SEQ ID NO: 5), or a concatemerized copy (DPDSG)5, was incubated on parental HEK293 cells containing an NF-κB-dependent luciferase reporter construct (293) and on TLR2-overexpressing HEK293 cells containing an NF-κB-dependent luciferase reporter construct (293.hTLR2, see Example 1, above). Luciferase activity was then measured. […] Thus, the TLR2-binding peptides identified by the screening assay are functional peptide TLR2 ligands.
Target sequence in this assay (O60603 21-784): as the sequence (O60603 21-784, species assumed) above
A general note: In a reporter assay the amount or activity of a reporter protein is the signal.

human TLR2 (hTLR2) (human), sequence (O60603 21-784 limits assumed): as the sequence (O60603 21-784, species assumed) above

For IMWFP (T7 phage-displayed peptide), in assay [1], the % ABUNDANCE stood at 0.9%.
The same measure, in the same setting: for SHIAL (T7 phage-displayed peptide) the value was 0.9%; for PESGV (T7 phage-displayed peptide), 0.92%.
For the substance NRTVF (T7 phage-displayed peptide), the % ABUNDANCE in assay [1] is 0.92%.
Still for that read-out and setting: the figure for ADTHQ (T7 phage-displayed peptide) is 0.9%; for NPPTT (T7 phage-displayed peptide) it is 0.92%; for HLLPG (T7 phage-displayed peptide) it is 0.9%.
Consider ALTTE, for which the “activation of monocytes and epithelial cells via TLR2 signaling” value in assay [2] was “activate monocytes and epithelial cells via TLR2 signaling”.
Turning to AVRLS (T7 phage-displayed peptide), in assay [1], the % ABUNDANCE turned out to be 0.92%.
As to “DPDSG: peptide TLR2 ligand from phage display; also made as synthetic monomer”, the “luciferase reporter gene expression” value in assay [3] is listed as “activated luciferase reporter gene expression in a TLR2-dependent manner”.
On to THKPK (T7 phage-displayed peptide), for which, in assay [1], the % ABUNDANCE was 0.9%.
Same read-out and setting: for KGWF (T7 phage-displayed peptide) the value was 0.9%.
Same read-out and setting: for MGTLP (T7 phage-displayed peptide) the value was 1.8%; for MISS (T7 phage-displayed peptide), 0.92%; for RGGSK (T7 phage-displayed peptide), 3.67%.
With EVCAP (T7 phage-displayed peptide), the % ABUNDANCE in assay [1] is 0.92%.
Still for that read-out and setting: for IHVVP (T7 phage-displayed peptide) the value was 0.9%.
Regarding “(DPDSG)5: concatemerized copy of the DPDSG motif, made by solid phase synthesis (DPDSGDPDSGDPDSGDPDSGDPDSG)”, the “luciferase reporter gene expression” value in assay [3] was “activated luciferase reporter gene expression in a TLR2-dependent manner”.
On to VSEGV (T7 phage-displayed peptide), for which, in assay [1], the % ABUNDANCE turned out to be 3.67%.
As for CVWLQ (T7 phage-displayed peptide), the % ABUNDANCE in assay [1] was determined as 0.9%.
As for KCQSF (T7 phage-displayed peptide), the % ABUNDANCE in assay [1] was 0.92%.
For the substance LRQGR (T7 phage-displayed peptide), in assay [1], the % ABUNDANCE stood at 0.9%.
On the same count and under the same terms, for MFGVP (T7 phage-displayed peptide) the value was 0.9%; for RGGF (T7 phage-displayed peptide), 0.92%; for NRFGL (T7 phage-displayed peptide), 0.92%.
Still for that read-out and setting: the figure for ACGVY (T7 phage-displayed peptide) is 0.92%.
Same read-out and setting: the figure for GPLLH (T7 phage-displayed peptide) is 0.9%; for VGKND (T7 phage-displayed peptide) it is 0.9%; for KYMPH (T7 phage-displayed peptide) it is 0.9%.
Take IYKLA (T7 phage-displayed peptide): the % ABUNDANCE in assay [1] is 0.9%.
On the same count and under the same terms, the figure for NYRRW (T7 phage-displayed peptide) is 0.9%; for CGPKL (T7 phage-displayed peptide) it is 0.92%; for GGKLS (T7 phage-displayed peptide) it is 0.92%.
The same measure, in the same setting: for SRHGR (T7 phage-displayed peptide) the value was 0.92%; for IGRFR (T7 phage-displayed peptide), 2.7%.
Turning to IMRHP (T7 phage-displayed peptide), the % ABUNDANCE in assay [1] came to 0.92%.
On the same count and under the same terms, for MRRIL (T7 phage-displayed peptide) the value was 0.92%.
As for FCGLG (T7 phage-displayed peptide), the % ABUNDANCE in assay [1] is 0.92%.
Same read-out and setting: for AWAGT (T7 phage-displayed peptide) the value was 0.9%; for RVVAP (T7 phage-displayed peptide), 0.9%.
Same read-out and setting: for AGCFS (T7 phage-displayed peptide) the value was 0.92%.
On to SGGLF (T7 phage-displayed peptide), for which the % ABUNDANCE in assay [1] worked out at 0.92%.

The record behind these values is patent publication US20090028889A1, “Novel Polypeptide Ligands For Toll-Like Receptor 2 (TLR2)” (VAXINNATE CORPORATION, priority 2005, published 2009).
